Laboratory results as given in the DeepSol protein solubility set.

Assay: soluble on expression in E. coli; label from the status in PepcDB or PDB records

Sequence | soluble on expression in E. coli
MTTEHETHAAELGAPEPECARCGKVLPLCICDTVEPIASRTQLLILQHPQEQDRALGTARLTAQHFKNAEVRIGLSWPSLSKALGRTVHDPSRWAVLYLGSARAAELAEGREILAVDAKGQPEPHQDMILDEIEGVVLLDGTWSQAKALWWRNAWMLKCQRVILDPSAPSRYGRLRKEPRRDGLSTLEAAAMLLSRLEHRPEIETKLLEAFDRMLARFKQVQAERPDLAPKPKKRDWRRKKRGLEHHHHHH | not soluble
MTTEKEMKQIQNEFKERMDEGELLNCMRCGFCLPSCPTYIESGFQETHSPRGRIALMKAVADGMIEPDEDVERSLSLCLGCRACEPVCPSGVKYGQLLEEARDIIHQNKKHSLGERVMRKTAFHELFPHQNRMRSAVSLIGLYQRSGLQTAVRKSGMLRVLPEHLRTMEAVLPDVPKSKDMKHRPRFLPSIGPMKKRVAFFSGCLMDTMFLPTNNATLKLLQLAGCDIVIPPEQACCGALHGHSGEKNTGKELAKQNIAAFEALDVDAVITNAGGCGAFLTEYDHLLKDDPEWSERAAAFVQKLKDFSSVLVELDFHQMDLALETPQVVTYQDSCHLRNVMHTSLEPRQLLKSIKGAEFKEMEKADSCCGSAGIYNIVEVEMSMKILDSKMAAVKATEAILIVTANPGCLLQMKLGIEREGLSGKVRAVHLADLLLEAAGHKTS | not soluble
MTTELETSFADLGLSAPILSALTDLGYEKPSPIQLECIPHLLNGRDVLGMAQTGSGKTAAFGLPLLHNIKADLKSPQVLVLAPTRELAVQVAEALSSFSKHINGVNVVALYGGQRYDVQLRALRQGPQVVVGTPGRLLDHLKRGTLNLSNLSGLVLDEADEMLRMGFIEDVETIMAQIPAEHQTALFSATMPEAIRRITRRFMKEPQEVRIQSSVTTRPDISQSYWRVGGGYRKNEALVRFLEAEDFDAAIIFVRTKNATLEVAEALERSGYNSAALNGDMNQALREQTLERLKDGRLDILIATDVAARGLDVERISLVVNYDIPMDSESYVHRIGRTGRAGRAGRALLFVENRERRLLQNIERTMKLTIPEVELPNADLLSERRLAKFAAKVSQQLESSDLDMYRALLAKLQPEEEFDIETLAAALLKMAQGERPLILPPEAPRRPQREFNSRDDRGNDRGSRDRGDSRRDNRSDSRSADSRDGGERPARRERRDVGEMELYRIEVGRDDGVEVRHIVGAIANEGDISSRYIGNIKLFASHSTIELPKGMPGEMLSHFTRTRILNKPLNMQLLGDAQPHERRERPAGGNGGERRGGGRPFSGERREGAGAPPRRSFSGDRAPTGGGERRGNRDGQRSAAPRRDDAAAPAAAAAAPARRRFGDA | not soluble
MTTILSVRDVKKVIGKKTIVENISFDVKQGEVFGFLGPNGAGKTTTIRMLVGLIKETEGTISIGGYSIKENFREAMRQIGSIVENPELYTYLTGWENLKQFARMLGGISDERIIEIAHMVHLDERIHDKVKTYSLGMKQRLGIAQALLGNPKLLILDEPTNGLDPAGIRELREFIHKLVKEENMSVFISSHLLSEVQMICDRVAIIHKGKMITVAKVEELIKTASDRVEWIVTPISKTKDMLVDAEEVREVSIEGDRLLCRMHISSISNWNKTFVENGIDVHSVKELVFTLEDLFIELTRGEQHA | not soluble
MTTKNTLQPTEAAYIAGFLDGDGSIYAKLIPRPDYKDIKYQVSLAISFIQRKDKFPYLQDIYDQLGKRGNLRKDRGDGIADYTIIGSTHLSIILPDLVPYLRIKKKQANRILHIINLYPQAQKNPSKFLDLVKIVDDVQNLNKRADELKSTNYDRLLEEFLKAGKIESSP | soluble
MTTKYAALLRGINVGGSRKVPMADLRALLTSLGHDAVRTHLQSGQAVFAAAHGDEDSLAAELAEAIGERFGFPVDVIVRDHAYLRSVVEACPFPAAELEARQLHVTYFSAPVEADRFAAIDAPAFRPEEFRLGDRALYLYAPDGLGRSKLAEALARPRVNKGLVATSRNWNTVTKLVELTGP | not soluble
MTTLAIDIGGTKLAAALIDNNLRISQRRELPTPASKTPDALREALKALVEPLRAEARQVAIASTGIIQEGMLLALNPHNLGGLLHFPLVQTLEAIAGLPTLAVNDAQAAAWAEYHALPDDIRDMVFITVSTGVGGGVVCDGKLLTGKGGLAGHLGHTLADPHGPVCGCGRVGCVEAIASGRGMAAAARDDLAGCDAKTLFIRAGEGHQQARHLVSQSAQVIARMIADVKATTDCQCVVIGGSVGLAEGYLEQVRAFLMQEPAPYHVALSAARYRHDAGLLGAALLAQGDTL | not soluble
MTTLQEAYLAFKSAQIIDLTHQINENSPHFPLLPALEKKDLFTLKDGFHIQQFTVVGQYGTHIDAPIHFVEGGAWLDELPLEDLLLPMYVIDKSQAVADNPNYELSKADILAFEEKYGQIEEGAFVAFRSDWSKRWPSQEEFRNLDTAGAQQTPGWSHEALEFLIHERQVKAVGHETFDTDSGQAVAENGKLVEEYYLLDQGIYQLEVLNNLNLLPATGSFISIAYPHWEKATGSPVRAIAYIAQELEHHHHHH | soluble
MTTMGEDEAPALPKKSPLPEKIDEADVDDDPDDKVIKIVVVGDGASGKTSICQRFAKESFDKSYHQTLGLDFFSRRITLPHEMQVLVQVWDIGGQSIAGEMIDKYLTGANIVFLVYDVTNSKSFENAVDWLSVVKKNTKSSETPVKLVLMGNKTDLEERRVVSVEAHKNFATSNDMMPTYVSAKTGDTVFLTFRQAVAEVLNVGLSRAEVEADIEIVQGSVIEQPKQSDASYARRSDQSRSTSVCSIT | soluble
MTTMVNVDTLPEYEKSQIKRALELGTVMTVFNARKSTPERRTVQMIMETRQVAWSKTADKIEGFLDIMEIKEIRPGKNSKDFERAKAVRHKAECCFTILYGTQFVLSTLSLATDSKEDAVKWLSGLKILHQEAMSASTPTMIESWLRKQIYSVDQTRRNSISLRELKTILPLVNFKVSGIKFLKDKLVEIGAQKDELSFEQFHLFYKKLMFDQQKSILDEFKKDSSVFILGNTDRPDASAVYLQDFQRFLLHEQQELWAQDLNKVRERMTKFIDDTMRETAEPFLFVDEFLTYLFSRENSIWDEKYDAVDMQDMNNPLSHYWISSSHNTYLTGDQLRSESSTEAYIRCLRAGCRCIELDCWDGPDGKPIIYHGWTRTTKIKFDDVVQAIRDHAFVTSSFPVILSIEEHCSVEQQRHMAKVFKEVLGDMLLTKPTEASADQLPSPSQLREKIIIKHKKLGPKGDVDVNVEDKKDEHKPQGELYMWDSIDQKWTRHYCAIADAKLSFGDDIEQAVEEEPVQDTPPTELHFGEKWFHKKVESRTSAEKLLQEYCAETGAKDGTFLVRESETFPNDYTLSFWRSGRVQHCRIRSTMENGVMKYYLTDNLTFNSIYALIQHYREAHLRCAEFELRLTDPVPNPNPHESKPWYYDSLSRGEAEDMLMRIPRDGAFLIRKREGTNSYAITFRARGKVKHCRINRDGRHFVLGTSAYFESLVELVSYYEKHALYRKMRLRYPVTPELLERYNMERDINSLYDVSRMYVDPSEINPSMPQRTVKALYDYKAKRSDELTFCRGALIHNVSKEPGGWWKGDYGTRIQQYFPSNYVEDISAGDAEEMEKQIIEDNPLGSLCKGILDLNTYNVVKAPQGKNQKAFVFILEPKKQGDPPVEFATDRVEELFEWFQSIREITWKMDTKENNMKYWERNQSIAIELSDLVVYCKPTSKTKDHLENPDFREIRSFVETKADSIVRQKPVDLLRYNQKGLTRVYPKGQRVDSSNYDPFRLWLCGSQMVALNFQTPDKYMQMNHALFSLNGRTGYVLQPESMRSEKYDPMPLESQRKILMTLTVKVLGARHLPKLGRSIACPFVEVEICGAEYDSNKFKTTVVNDNGLSPVWAPTQEKVTFEIYDPNLAFLRFVVYEEDMFSDPNFLAHATYPIKGIKSGFRSVPLKNGYSEDIELASLLVFCEMRPVLESEEELYSSCRQLRRRQEELNNQLFLYDTHQNLRGANRDALVKEFNVNENQLQLYQEKCNRRLREKRVSNSRFYS | soluble
MTTQITAEDVEAYLGTRENSPTMSDTVDAAVDLVESWKSTPQEKWPPRWRRGCIMLAARMDRRRNSPAGVDTMGEIGVVYVSRKDPDIAQLLEIGDFSKPIAR | not soluble
MTTQQKKSSTRQGFKTGESIVYPAHGVGQIVAIEEQEVAGMKLELFVIDFEKDKMRLKVPVAKAVGIGMRKLSETDFVDRALKVVQGKARVKRTMWSRRAQEYDAKINSGDLISIAEVVRDLYRAENQPEQSYSERQLYEAALDRMAREIAAVNRMSETEAVRLVEANLNKGPKRGKAIEEDDAQDEAA | not soluble
MTTRCPWVGEQSIYIDYHDKEWGKPEFDSQKLFEKICLEGQQAGLSWITVLKKRESYREAFHQFDPKKIAKMTALDIDACMQNSGLIRHRAKLEAIVKNAKAYLAMEKCGENFSDFIWSFVNHKPIVNDVPDLRSVPTKTEVSKALSKALKKRGFVFIGETTCYAFMQSMGLVDDHLNDCPCKTSLEHHHHHH | soluble
MTTSPTENAHAVVLGGSVAGCLAAAVLARRYPRVTIVEKSDFHNETGARQSVPQEHHVHLLLQRGKDIMEAIFPGFLSELEQAGALVADLGHDVKWYQAGRWKNRYRCGIHAHYCSRRLIDTHLRRRVARLPQVTVLSRTQMEGLDFRRDGDRLAVGGVRLRNDDHAWTLDADALVDASGRGTRLPGWLETAGLGAVDKSMVKTDLGYASRIYRRRPEFANQWKVLLVLATPPHQRAMGVISPIEGDRWMVTTGGWFGHYPDRDPNAFLKALAALPMPDIHQVIRDAEPLSDVSVFRMPGSLRRHYDRLPRWPDGLLVVGDALASMNPLYSQGMTLCALEAECLDENLDALLAGGLRCQELQEKLCRALDPAWQMAVTEDLRFPETEGERGWRTRFLHWYGAGLTRLSAYHRGALEAQIGVSNLIVNPSRLYAPPIAARIVLGSLLPGEARTLEHHHHHH | not soluble
MTTTTPIRLLVRPITAGDNLAIANVIREVSAEFGLTADKGYTVSDPNLDHLYELYSQPRSAYWVIEVDGHIAGGGGVAPLLGGEADLCELQKMYFLPILRGKGLAKQLALQALAFARQQGFGRCYLETTASLTSAVGLYERLGFEHIGGAMGNTGHVDCEVTMLKTL | not soluble
MTTVRQRIDTQHRDAIHDAQLNIYGSRLATCGSDRLVKIFEVRPNGQSYPMAELVGHSGPVWKVSWAHPKYGGLLASASYDKKVIIWNEQQGRWQKAYEWAAHEASTTCVAFAPHQYGLMLASASADGDIGILRYDNSSNEWISSKIQKCHEQGVNSVCWAPGSADPAAKKRLVSAGNDKNVKIWALSQFGAKIFRDNGSKCHVTIRNARE | soluble
MTVATYEVEKQFLTYVKKIQNYGEALSLMFWDLRTGAPKKGVDQRSEVIGMLSSEVFAMSTSDEMGNYLTELEALISEDKLSETTKKMVEECRKEYDRNKKIPQAEYEAYVKLEAKAESVWEEAREKSDFEMFRPYLEQIVEFKKKFITYWGYETYKYNTLLDMYEPGITVEVLDHVFGQLRERIVPLVKEISESQKRLKTSALSEHFSKEKQKNFTLELLKQLNYDFEAGRLDETVHPFEITLNRGDVRITTRYDEKDFRMAVFGTIHECGHAVYEQNIAEKFEGTPLCSGTSMGIHESQSLFFENFIGRNKSFWKKNYDLLKEYSDGQFNDISVDEFYDAINESKPSFIRIEADELTYPLHVMVRYELEKELFDGTLQVKDLPAAWNDKMEAYLGIRPANDAQGVLQDVHWAGGSFGYFPSYALGYMYAAQFKQRMVKDIPNFDALLEEGNVTPIREWLTENIHQYGKTKKPLEILEDVTGEGLNANYLADYLEAKYREIYEL | not soluble
